Biological target: GST-Cullin5 (NTD), N-terminal domain of murine cullin5 (Met1-Leu385) with V341R and L345D (murine) (UniProt Q9D5V5)
Experiment: SPR

GST-Cullin5 (NTD), N-terminal domain of murine cullin5 (Met1-Leu385) with V341R and L345D (murine), sequence (Q9D5V5 1-385 V341R/L345D): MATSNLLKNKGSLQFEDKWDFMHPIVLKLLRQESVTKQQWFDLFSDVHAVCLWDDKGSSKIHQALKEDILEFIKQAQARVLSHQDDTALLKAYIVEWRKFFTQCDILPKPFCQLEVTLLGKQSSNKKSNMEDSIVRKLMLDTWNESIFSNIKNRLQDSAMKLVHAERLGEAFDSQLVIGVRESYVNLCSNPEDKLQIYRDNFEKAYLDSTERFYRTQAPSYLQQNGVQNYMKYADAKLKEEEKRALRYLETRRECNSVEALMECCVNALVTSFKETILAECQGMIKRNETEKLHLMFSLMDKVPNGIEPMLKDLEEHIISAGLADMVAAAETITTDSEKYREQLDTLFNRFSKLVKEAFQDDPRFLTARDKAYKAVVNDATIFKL

Substance: SOCS3 box/elonginBC ternary complex (from UniProt Q15370 1-118; P83940 17-112)
- KD by Biacore relative to KD by ITC (fold): 4 fold
- half-life of the complex: 10 s
